In patent US20250012721A1 (JIANGSU UNIVERSITY, published 2025):
Where “and” joins values, the source holds several entries; their conditions need not be identical. Equal values may be shown once.

Legend:
C1r protein = molecular target: T1, C1r protein (UniProt P00736 18-705); test: indirect ELISA, antigen coated at 1 µg/ml, Goat anti-Human IgG-HRP detection, OD 450 nm
T1 construct: also called Cir protein
T1 sequence (looked up): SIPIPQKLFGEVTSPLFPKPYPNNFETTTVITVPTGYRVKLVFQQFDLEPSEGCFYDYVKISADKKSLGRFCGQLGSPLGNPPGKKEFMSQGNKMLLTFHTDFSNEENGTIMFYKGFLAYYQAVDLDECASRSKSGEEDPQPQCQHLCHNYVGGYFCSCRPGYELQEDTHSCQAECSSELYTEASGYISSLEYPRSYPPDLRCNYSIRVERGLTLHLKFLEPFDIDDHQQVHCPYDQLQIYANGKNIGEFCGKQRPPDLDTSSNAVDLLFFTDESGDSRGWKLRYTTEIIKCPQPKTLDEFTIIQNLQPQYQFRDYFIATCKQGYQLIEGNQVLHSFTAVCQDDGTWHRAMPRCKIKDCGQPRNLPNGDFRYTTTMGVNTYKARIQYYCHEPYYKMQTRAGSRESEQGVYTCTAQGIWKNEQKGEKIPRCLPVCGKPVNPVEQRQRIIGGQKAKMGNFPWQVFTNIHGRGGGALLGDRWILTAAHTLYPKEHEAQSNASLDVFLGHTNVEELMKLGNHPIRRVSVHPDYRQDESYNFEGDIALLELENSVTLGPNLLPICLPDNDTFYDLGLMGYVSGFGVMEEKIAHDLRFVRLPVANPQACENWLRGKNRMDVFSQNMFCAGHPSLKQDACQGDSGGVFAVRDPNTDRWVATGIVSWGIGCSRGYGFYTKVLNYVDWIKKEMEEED
Procedure: In this example, the antigen-binding specificity of the C1s recombinant antibody was analyzed by an indirect ELISA method according to the principle of the specificity detection of the C1s recombinant antibody shown in FIG. 4. An analysis method included the following steps:
200 μL (1 μg/ml) of C1s antigen (single-stranded unactivated C1s protein, double-stranded activated C1s protein, or C1r protein) was added respectively to wells of a microtiter plate, and the microtiter plate was gently shaken to make the antigen cover a well bottom of the microtiter plate. Incubation was performed overnight at 4° C. After washing the plate 3 times with a warm PBS, 200 μL of a blocking solution (10 mM PBS, 1% BSA, 0.1% casein) was added to perform blocking. Incubation was next performed at 37° C. for 1 h. The plate was washed 5 times with PBS. 100 μL of the C1s recombinant antibody was added in each well (an initial concentration of a first well was 10 μg/mL, then diluted down to 7 wells according to a ratio of ¼ gradient to set up duplicate wells), incubation was performed at 37° C. for 1 h. The liquid in the microtiter plate was spin-dried, and the plate was washed with 200 μL of warm PBS 5 times. 100 μL of a diluted secondary antibody (Goat anti-Human IgG-HRP) was added to each well of the microtiter plate. […] An optical density (OD) was read at 450 nm on the microplate reader.

MASP1 = molecular target: T2, MASP1 (UniProt P48740 20-699, limits assumed); test: cell-based or functional assay
T2 sequence (looked up): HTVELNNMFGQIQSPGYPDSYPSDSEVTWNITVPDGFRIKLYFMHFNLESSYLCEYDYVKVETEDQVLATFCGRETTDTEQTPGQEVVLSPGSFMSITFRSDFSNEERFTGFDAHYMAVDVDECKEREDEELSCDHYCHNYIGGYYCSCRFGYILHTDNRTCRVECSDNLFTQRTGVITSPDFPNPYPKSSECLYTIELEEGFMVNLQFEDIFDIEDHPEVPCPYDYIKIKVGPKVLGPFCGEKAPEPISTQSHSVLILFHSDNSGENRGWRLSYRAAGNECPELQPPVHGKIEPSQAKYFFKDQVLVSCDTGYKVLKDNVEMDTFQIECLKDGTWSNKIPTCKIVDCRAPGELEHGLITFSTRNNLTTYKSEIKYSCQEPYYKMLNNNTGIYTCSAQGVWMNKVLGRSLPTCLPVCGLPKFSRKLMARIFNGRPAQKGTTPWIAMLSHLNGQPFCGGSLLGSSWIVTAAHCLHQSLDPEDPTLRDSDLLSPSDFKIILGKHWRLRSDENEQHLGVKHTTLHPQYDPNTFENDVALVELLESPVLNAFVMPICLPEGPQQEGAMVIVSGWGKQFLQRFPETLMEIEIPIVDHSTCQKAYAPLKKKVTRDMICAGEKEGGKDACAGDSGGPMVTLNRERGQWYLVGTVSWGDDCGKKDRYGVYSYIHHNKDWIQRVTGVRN

MASP2 = MASP2 (UniProt O00187 16-686, limits assumed); test: cell-based or functional assay
Sequence of MASP2 (O00187 16-686 limits assumed): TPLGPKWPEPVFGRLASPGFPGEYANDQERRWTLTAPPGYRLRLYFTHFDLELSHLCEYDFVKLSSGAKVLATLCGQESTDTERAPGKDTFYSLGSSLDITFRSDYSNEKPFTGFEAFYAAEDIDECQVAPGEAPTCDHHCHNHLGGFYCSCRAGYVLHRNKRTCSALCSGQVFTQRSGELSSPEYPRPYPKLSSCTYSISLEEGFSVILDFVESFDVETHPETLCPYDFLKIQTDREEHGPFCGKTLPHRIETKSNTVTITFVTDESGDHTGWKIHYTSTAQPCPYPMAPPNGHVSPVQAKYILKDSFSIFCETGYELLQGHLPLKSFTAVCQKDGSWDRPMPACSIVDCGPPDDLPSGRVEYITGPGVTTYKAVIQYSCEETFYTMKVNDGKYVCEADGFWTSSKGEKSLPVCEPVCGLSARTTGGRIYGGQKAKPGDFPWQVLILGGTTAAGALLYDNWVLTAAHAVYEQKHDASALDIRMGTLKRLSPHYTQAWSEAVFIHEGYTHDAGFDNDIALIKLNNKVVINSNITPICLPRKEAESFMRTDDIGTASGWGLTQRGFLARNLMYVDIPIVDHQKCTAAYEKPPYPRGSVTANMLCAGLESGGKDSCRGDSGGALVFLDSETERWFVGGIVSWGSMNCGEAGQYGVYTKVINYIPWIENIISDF

double-stranded C1r = molecular target: T3, double-stranded C1r (UniProt P00736 18-705); test: cell-based or functional assay
T3 sequence (looked up): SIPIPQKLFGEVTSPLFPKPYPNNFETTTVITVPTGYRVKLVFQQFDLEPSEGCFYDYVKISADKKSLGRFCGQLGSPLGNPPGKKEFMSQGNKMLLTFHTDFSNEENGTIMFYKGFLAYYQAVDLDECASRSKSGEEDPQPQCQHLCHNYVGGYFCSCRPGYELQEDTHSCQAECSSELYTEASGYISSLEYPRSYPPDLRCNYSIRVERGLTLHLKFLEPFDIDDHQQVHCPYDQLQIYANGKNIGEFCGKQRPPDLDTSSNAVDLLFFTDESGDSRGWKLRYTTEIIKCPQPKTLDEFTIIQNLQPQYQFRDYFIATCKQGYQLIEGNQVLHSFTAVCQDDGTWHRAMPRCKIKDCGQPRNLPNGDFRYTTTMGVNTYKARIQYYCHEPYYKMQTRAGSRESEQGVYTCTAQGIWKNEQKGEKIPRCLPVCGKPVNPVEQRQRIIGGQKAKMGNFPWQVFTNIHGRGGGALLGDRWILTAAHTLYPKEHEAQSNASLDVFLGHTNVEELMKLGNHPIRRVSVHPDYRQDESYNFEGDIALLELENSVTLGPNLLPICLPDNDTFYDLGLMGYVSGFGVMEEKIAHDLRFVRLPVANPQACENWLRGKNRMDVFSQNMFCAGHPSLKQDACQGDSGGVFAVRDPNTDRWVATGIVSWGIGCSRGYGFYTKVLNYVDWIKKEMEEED

binding result (C1r protein): no binding
Cross reaction rate (%) (MASP1): 0.04%
Measured concentration (MASP1): 1.82 pmol/min/µg and 2 µg/mL
Cross reaction rate (%) (MASP2): 0.04%
Measured concentration (MASP2): 1.64 pmol/min/µg and 1.8 µg/mL
Cross reaction rate (%) (double-stranded C1r): 0.15%
Measured concentration (double-stranded C1r): 0.91 pmol/min/µg and 1 µg/mL
B1: C1s recombinant antibody (antibody, human IgG4 S228P, kappa, V domains shown)
VH: EVQLVESGGGLVKPGGSLRLSCAASGFTFSNYAMSWVRQAPGKGLEWVATISSGGSHTYYLDSVKGRFTISRDNSKNTLYLQMNSLRAEDTALYYCARLFTGYAMDYWGQGTLVTVSS
VL: QIVLTQSPATLSLSPGERATMSCTASSSVSSSYLHWYQQKPGKAPKLWIYSTSNLASGVPSRFSGSGSGTDYTLTISSLQPEDFATYYCHQYYRLPPITFGQGTKLEIKR
notes: The summary and claim 1 call the same entries variable regions; Expressed in HEK293T; also called C1s-specific recombinant antibody; recombinant anti-C1s antibody
